Reference: US20150203575A1 (Genentech, published 2015)
Where two headings read alike, the source gives them in different places.

T1: CLEC4G expressed on cells (human, UniProt Q6UXB4 1-293)
T1 construct: Clone of the Origene human cDNA library; also called C type lectin superfamily 4 member G
T1 sequence: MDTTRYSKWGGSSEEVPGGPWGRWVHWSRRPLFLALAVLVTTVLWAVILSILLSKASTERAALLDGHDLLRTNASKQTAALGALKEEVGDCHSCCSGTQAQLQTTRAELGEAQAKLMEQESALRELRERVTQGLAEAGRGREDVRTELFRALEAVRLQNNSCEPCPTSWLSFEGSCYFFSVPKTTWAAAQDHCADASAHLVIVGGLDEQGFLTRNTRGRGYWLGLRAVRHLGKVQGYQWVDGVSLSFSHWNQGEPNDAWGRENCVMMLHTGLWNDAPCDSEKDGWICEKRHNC

T2: BR3 expressed on cells (human, UniProt Q96RJ3 1-184)
T2 construct: Clone of the Origene human cDNA library
T2 sequence: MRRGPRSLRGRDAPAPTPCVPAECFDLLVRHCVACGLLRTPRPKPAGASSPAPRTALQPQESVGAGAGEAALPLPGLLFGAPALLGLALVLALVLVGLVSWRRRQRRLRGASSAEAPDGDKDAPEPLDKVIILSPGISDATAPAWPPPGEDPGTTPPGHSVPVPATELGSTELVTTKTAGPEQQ

T3: IL-2Ra expressed on cells (human, UniProt P01589 22-272)
T3 construct: Clone of the Origene human cDNA library; also called Interleukin 2 receptor alpha
T3 sequence: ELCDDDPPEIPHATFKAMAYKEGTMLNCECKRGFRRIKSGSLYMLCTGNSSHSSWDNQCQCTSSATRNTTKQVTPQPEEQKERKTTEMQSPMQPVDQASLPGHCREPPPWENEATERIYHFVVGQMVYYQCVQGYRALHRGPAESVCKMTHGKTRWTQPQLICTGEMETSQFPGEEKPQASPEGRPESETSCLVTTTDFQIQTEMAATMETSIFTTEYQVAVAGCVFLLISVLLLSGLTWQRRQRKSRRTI

T4: MAG expressed on cells (human, UniProt P20916 20-626)
T4 construct: Clone of the Origene human cDNA library; also called Myelin associated glycoprotein; SIGLEC4A
T4 sequence: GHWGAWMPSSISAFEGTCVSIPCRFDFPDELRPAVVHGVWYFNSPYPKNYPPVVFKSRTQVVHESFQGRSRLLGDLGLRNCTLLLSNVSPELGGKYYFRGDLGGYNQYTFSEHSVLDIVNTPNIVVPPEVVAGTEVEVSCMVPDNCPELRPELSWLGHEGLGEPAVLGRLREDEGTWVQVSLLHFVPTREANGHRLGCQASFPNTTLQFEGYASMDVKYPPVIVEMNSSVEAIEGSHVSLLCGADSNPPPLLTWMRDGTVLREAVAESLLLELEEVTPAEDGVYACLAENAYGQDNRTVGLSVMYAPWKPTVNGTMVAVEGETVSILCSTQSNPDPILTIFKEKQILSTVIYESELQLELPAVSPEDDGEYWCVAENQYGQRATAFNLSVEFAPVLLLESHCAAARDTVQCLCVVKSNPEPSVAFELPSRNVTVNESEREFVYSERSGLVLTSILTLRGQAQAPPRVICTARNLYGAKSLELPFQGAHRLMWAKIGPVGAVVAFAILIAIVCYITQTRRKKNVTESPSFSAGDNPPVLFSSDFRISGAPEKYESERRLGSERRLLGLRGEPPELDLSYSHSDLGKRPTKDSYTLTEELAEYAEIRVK

B1: mPILRα-Fc (Fc fusion)
chain: not shown
notes: also called mouse PILRα-Fc; WT mPILRα-Fc; not shown: Fc of mouse IgG2a (PILRα-mIgG2a, called PILRα-Fc)
B2: mPILRαR133A-Fc (Fc fusion)
chain: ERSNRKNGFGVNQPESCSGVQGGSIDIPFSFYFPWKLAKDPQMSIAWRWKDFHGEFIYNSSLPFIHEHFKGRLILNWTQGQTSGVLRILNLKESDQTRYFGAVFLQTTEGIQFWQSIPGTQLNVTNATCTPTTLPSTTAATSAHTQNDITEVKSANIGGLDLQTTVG
notes: Arg mutant of mPILRα-Fc; also called mPILRα133A-Fc; variant mPILRα (R133A); not shown: Fc of mouse IgG2a (PILRα-mIgG2a, called PILRα-Fc)

Experiments:
[1] = target: T1, CLEC4G expressed on cells; assay: flow cytometry, transfected 293T cells, 50 µg/ml
[2] = target: T5, LRRTM4 expressed on cells (human, UniProt Q86VH4 31-590); assay: flow cytometry, transfected 293T cells, 2 µg/ml
T5 construct: Clone of the Origene human cDNA library; also called Leucine rich repeat transmembrane neuronal 4
T5 sequence (Q86VH4 31-590 limits assumed): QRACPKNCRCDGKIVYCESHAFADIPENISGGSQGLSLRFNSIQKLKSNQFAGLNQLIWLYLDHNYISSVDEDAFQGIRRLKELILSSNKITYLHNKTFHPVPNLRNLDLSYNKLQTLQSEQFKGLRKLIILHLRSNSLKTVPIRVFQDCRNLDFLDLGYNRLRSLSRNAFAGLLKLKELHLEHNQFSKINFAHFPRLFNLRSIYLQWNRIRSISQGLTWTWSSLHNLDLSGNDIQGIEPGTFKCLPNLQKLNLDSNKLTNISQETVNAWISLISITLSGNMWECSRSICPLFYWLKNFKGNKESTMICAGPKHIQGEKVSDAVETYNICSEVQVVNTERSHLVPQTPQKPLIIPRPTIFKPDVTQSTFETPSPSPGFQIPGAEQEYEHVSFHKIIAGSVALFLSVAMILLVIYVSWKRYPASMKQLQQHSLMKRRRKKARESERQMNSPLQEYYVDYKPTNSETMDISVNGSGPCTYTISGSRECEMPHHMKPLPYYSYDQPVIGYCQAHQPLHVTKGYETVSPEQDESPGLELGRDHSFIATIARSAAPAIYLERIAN

[3] = target: T2, BR3 expressed on cells; assay: flow cytometry, transfected 293T cells, 2 µg/ml
[4] = target: T3, IL-2Ra expressed on cells; assay: flow cytometry, transfected 293T cells, 2 µg/ml
[5] = target: T6, PSS8 expressed on cells (human, UniProt Q16651 30-343); assay: flow cytometry, transfected 293T cells, 2 µg/ml
T6 construct: Clone of the Origene human cDNA library; also called Protease serine 8; prostasin
T6 sequence (Q16651 30-343 limits assumed): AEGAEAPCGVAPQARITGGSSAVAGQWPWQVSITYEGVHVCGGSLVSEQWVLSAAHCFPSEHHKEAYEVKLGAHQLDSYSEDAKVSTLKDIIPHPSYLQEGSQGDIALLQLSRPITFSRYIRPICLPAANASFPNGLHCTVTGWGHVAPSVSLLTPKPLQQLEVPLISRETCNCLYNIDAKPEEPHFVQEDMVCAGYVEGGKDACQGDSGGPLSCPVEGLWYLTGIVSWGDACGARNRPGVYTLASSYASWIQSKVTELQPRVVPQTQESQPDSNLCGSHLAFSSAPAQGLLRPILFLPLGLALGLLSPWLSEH

[6] = target: T5, LRRTM4 expressed on cells; assay: flow cytometry, transfected 293T cells, 50 µg/ml
[7] = target: T1, CLEC4G expressed on cells; assay: flow cytometry, transfected 293T cells, 2 µg/ml
[8] = target: T7, human COLEC12 expressed on cells (human, UniProt Q5KU26 1-742); assay: flow cytometry, transfected 293T cells, 2 µg/ml
T7 construct: also called hCOLEC12; C-terminal his tagged hCOLEC12
T7 sequence (Q5KU26 whole entry S522P/G606S): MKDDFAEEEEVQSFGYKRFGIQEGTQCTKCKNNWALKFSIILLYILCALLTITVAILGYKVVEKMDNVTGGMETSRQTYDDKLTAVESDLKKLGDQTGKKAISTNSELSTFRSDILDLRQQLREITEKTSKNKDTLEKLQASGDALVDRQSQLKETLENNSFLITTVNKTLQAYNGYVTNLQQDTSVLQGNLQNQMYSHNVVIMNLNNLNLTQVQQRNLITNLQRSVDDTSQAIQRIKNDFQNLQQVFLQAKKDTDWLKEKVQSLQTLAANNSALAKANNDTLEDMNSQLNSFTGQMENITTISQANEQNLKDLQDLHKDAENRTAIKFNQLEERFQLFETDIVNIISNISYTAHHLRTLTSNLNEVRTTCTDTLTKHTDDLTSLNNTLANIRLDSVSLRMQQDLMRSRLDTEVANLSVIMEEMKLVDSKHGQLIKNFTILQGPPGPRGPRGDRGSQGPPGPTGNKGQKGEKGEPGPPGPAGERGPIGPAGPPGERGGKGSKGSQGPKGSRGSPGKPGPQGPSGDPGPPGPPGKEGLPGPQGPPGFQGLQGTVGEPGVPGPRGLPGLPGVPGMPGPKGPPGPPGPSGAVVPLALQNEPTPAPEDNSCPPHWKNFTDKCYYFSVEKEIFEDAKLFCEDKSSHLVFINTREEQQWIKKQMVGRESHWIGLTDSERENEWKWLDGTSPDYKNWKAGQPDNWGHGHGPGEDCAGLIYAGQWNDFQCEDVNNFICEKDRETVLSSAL

[9] = target: T4, MAG expressed on cells; assay: flow cytometry, transfected 293T cells
[10] = target: T1, CLEC4G expressed on cells; assay: flow cytometry, transfected 293T cells, 2 µg/ml; remark: listed apart in the source
[11] = target: T7, human COLEC12 expressed on cells; assay: flow cytometry, transfected 293T cells, 2 µg/ml; remark: listed apart in the source
[12] = target: T4, MAG expressed on cells; assay: flow cytometry, transfected 293T cells, 2 µg/ml
[13] = target: T5, LRRTM4 expressed on cells; assay: flow cytometry, transfected 293T cells, 2 µg/ml; remark: listed apart in the source
[14] = target: T4, MAG expressed on cells; assay: flow cytometry, transfected 293T cells, 50 µg/ml
[15] = target: T5, LRRTM4 expressed on cells; assay: flow cytometry, transfected 293T cells, 50 µg/ml; remark: listed apart in the source

Binder | % cells in lower right quadrant [1] [%] | % cells in lower right quadrant [2] [%] | % cells in lower right quadrant [3] [%] | % cells in lower right quadrant [4] [%] | % cells in lower right quadrant [5] [%] | % cells in lower right quadrant [6] [%] | % cells in lower right quadrant [7] [%] | % cells in lower right quadrant [8] [%] | binding result [9] | % cells in lower right quadrant [10] [%] | % cells in lower right quadrant [11] [%] | % cells in lower right quadrant [12] [%] | % cells in lower right quadrant [13] [%] | % cells in lower right quadrant [14] [%] | % cells in lower right quadrant [15] [%]
B1 | 85.5 | 2.68 | 34.1 | 14.1 | 0.024 | 16.6 | 69.9 | 0.082 | no binding (tested: 50 µg/ml) | 69.9 | 0.082 | 0.039 | 2.68 | 0.55 | 16.6
B2 | 0.045 | 0.025 | – | – | – | 0.019 | 0.044 | 0.014 | no binding (tested: 50 µg/ml) | 0.044 | 0.014 | 0 | 0.025 | 0 | 0.019
